In the experiment the target is T1, N-terminally biotinylated peptide HRRSARYLDTVL
T1 construct: Captured through its biotin on streptavidin coated onto the ELISA wells; also called ligand of NHERF PDZ1 mutant H9
T1 peptide: Biotin-HRRSARYLDTVL
Nature of the experiment: ELISA; serial dilutions of GST-PDZ fusion on biotinylated peptide captured on streptavidin-coated wells; anti-His HRP detection. On the procedure: The GST-PDZ fusion protein expressed by clone H2 was partially characterized. The DNA of clone H2 was transformed into E. coli strain BL21 [DE3] and the resulting transformant induced in 1 mL culture volume using 0.1 mM IPTG for 2.5 hours at 30° C. with shaking at 300 rpm. The cells were harvested from the culture medium and lysed using BugBuster (Novagen). Batch affinity purification was carried out using 50 μl of glutathione affinity resin (Novagen), eluting the bound protein in reduced glutathione elution buffer. […] The eluted protein was tested by ELISA for binding to N-terminally biotinylated peptide […] (SEQ ID NO: 14) bound to 0.1 μg of streptavidin coated onto each well of an ELISA plate. Serial dilutions of the protein were added to wells in which the peptide was present or absent (negative controls) and immuno-detection of a C-terminal hexahistidine tag provided by the modified pGEX-2TK vector was carried out using a horseradish peroxidase-conjugated antibody (Roche).

No end group written: not given here. *: point of attachment. Biotin = O=C1N[C@H]2[C@H](CS[C@H]2CCCCC(=O)*)N1

B1: GST-PDZ fusion protein expressed by clone H2 (NHERF PDZ1 loop-variant H2, CHPQFC inserted in loop β23 of NHERF PDZ1 mutant H9) (designed binder, not shown: a dimerising Fc or GST; large carriers; small tags and cut ends)
chain: LPRLCCLEKGPNGYGFHLHGEKGCHPQFCKVGQYIGLVVPGSPAEKAGLLAGDRLVEVNGENVEKETHQQVVSRIRAALNAVCLLVVDPE
notes: Partially purified on glutathione resin from induced E. coli BL21[DE3]; also called PDZ loop-variant H2; NHERF PDZ loop-variant H2
Regarding B1, the binding result is “binds”.
